Measured values: publication PMC10367348 (Journal of Biomedical Science, 2023)
Ends that are not written are not given here.

Key:
[1] = target: T1, matrix protein 2 [Influenza A virus (A/New York/392/2004(H3N2))] (Influenza A virus (A/New …, UniProt P0DOF5, strain)); experiment: flow cytometry on cells; settings: one partner purified
T1 construct: also called M2; M2 protein

[2] = target: T2, biotinylated BSA conjugated peptide (influenza A virus, also: biotinylated, BSA conjugated); experiment: BLI
T2 peptide: KSLLTEVETPI

B1: scFv JU1 (scFv, V domains shown)
VH: EVQLLESGGGLVQPGGSLRLSCAASGFTFSSYAMSWVRQAPGKGLEWVSRISAQGNQTRYSDSVKGRFTISRDNSKNTLYLQMNSLRAEDTAVYYCAKKSSYFDYWGQGTLVTVSS
VL: DIQMTQSPSSLSASVGDRVTITCRASQSISSYLNWYQQKPGKAPKLLIYKASTLQSGVPSRFSGSGSGTDFTLTISSLQPEDFATYYCQQWRTRPLTFGQGTKVEIK
In the case of B1, the binding result [1] is reported as “binds” and the Kd [2] is reported as 3610 nM.

B2: scFv UU1 (scFv, V domains shown)
VH: EVQLLESGGGLVQPGGSLRLSCAASGFTFSSYAMSWVRQAPGKGLEWVSTISMSGKRTQYADSVKGRFTISRDNSKNTLYLQMNSLRAEDTAVYYCAKRHRYFDYWGQGTLVTVSS
VL: DIQMTQSPSSLSASVGDRVTITCRASQSISSYLNWYQQKPGKAPKLLIYRASKLQSGVPSRFSGSGSGTDFTLTISSLQPEDFATYYCQQPGWRPKTFGQGTKVEIK
In the case of B2, the binding result [1] is reported as “binds” and the Kd [2] is reported as 8600 nM.

B3: scFv AU1 (scFv, V domains shown)
VH: EVQLLESGGGLVQPGGSLRLSCAASGFTFSSYAMSWVRQAPGKGLEWVSTILQHGQRTLYADSVKGRFTISRDNSKNTLYLQMNSLRAEDTAVYYCAKNRAVFDYWGQGTLVTVSS
VL: DIQMTQSPSSLSASVGDRVTITCRASQSISSYLNWYQQKPGKAPKLLIYTASTLQSGVPSRFSGSGSGTDFTLTISSLQPEDFATYYCQQYRQRPPTFGQGTKVEIK
notes: also called AU1 scFv
With B3 the binding result [1] was “binds” and the Kd [2] was 940 nM.

B4: scFv GU1 (scFv, V domains shown)
VH: EVQLLESGGGLVQPGGSLRLSCAASGFTFSSYAMSWVRQAPGKGLEWVSGISQLGGYTGYAGSVKGRFTISRDNSKNTLYLQMNSLRAEDTAVYYCAKNRATFDYWGQGTLVTVSS
VL: DIQMTQSPSSLSASVGDRVTITCRASQSISSYLNWYQQKPGKAPKLLIYAASHLQSGVPSRFSGSGSGTDFTLTISSLQPEDFATYYCQQSQHKPLTFGQGTKVEIK
In the case of B4, the binding result [1] is reported as “binds” and the Kd [2] is reported as 350 nM.
